Tests used:
[1] = target: T1, calcineurin (CN A–CN B heterodimer), recombinant (UniProt Q08209;P63098)
[2] = target: rhodamine-CN (calcineurin labelled with tetramethylrhodamine acceptor) (UniProt Q08209;P63098, tetramethylrhodamine label on CN (chain and site not stated)); experiment: FRET or BRET
[3] = target: T1, calcineurin (CN A–CN B heterodimer), …; experiment: SEC-MALS

T1 sequence (P63098 16-170, one chain of several): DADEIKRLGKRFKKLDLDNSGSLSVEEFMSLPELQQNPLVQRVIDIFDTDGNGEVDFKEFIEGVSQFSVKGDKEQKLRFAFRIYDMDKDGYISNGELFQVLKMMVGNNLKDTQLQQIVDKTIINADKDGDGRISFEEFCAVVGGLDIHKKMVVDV

Row | Binder | Ki [1] | other results
1 | KRMEPAAIIITDTEIS (domain or fragment) [GST-AKAP79(333–348) I338A (PAAIIIT)] | 47 µM | 
2 | KRMEAIAIIITDTEIS (domain or fragment) [GST-AKAP79(333–348) P337A (AIAIIIT)] | 3.7 µM | 
3 | GST-tagged wildtype AKAP79(333–408) (PIAIIIT) (domain or fragment) KRMEPIAIIITDTEISEFDVTKSKNVPKQFLISAENEQVGVFANDNGFEDRTSEQYETLLIETASSLVKNAIQLSI | 0.36 µM | 
4 | ATTO425-AKAP79(333–408) I338P variant (PPAIIIT) (domain or fragment, ATTO 425 donor label (site not stated)) KRMEPPAIIITDTEISEFDVTKSKNVPKQFLISAENEQVGVFANDNGFEDRTSEQYETLLIETASSLVKNAIQLSI |  | koff [2]: 4.24 s⁻¹
5 | AKAP79(333–408) (domain or fragment) KRMEPIAIIITDTEISEFDVTKSKNVPKQFLISAENEQVGVFANDNGFEDRTSEQYETLLIETASSLVKNAIQLSI |  | stoichiometry N [3]: 1
6 | GST-AKAP79(333–408) T343A (PIAIIIA) (domain or fragment) KRMEPIAIIIADTEISEFDVTKSKNVPKQFLISAENEQVGVFANDNGFEDRTSEQYETLLIETASSLVKNAIQLSI | 39 µM | 
7 | GST-AKAP79(333–408) I338P (PPAIIIT) (domain or fragment) KRMEPPAIIITDTEISEFDVTKSKNVPKQFLISAENEQVGVFANDNGFEDRTSEQYETLLIETASSLVKNAIQLSI | 0.08 µM | 
8 | GST-AKAP79(333–408) I338P T343A (PPAIIIA) (domain or fragment) KRMEPPAIIIADTEISEFDVTKSKNVPKQFLISAENEQVGVFANDNGFEDRTSEQYETLLIETASSLVKNAIQLSI | 12 µM | 

From article PMC3294036 (Nature structural & molecular biology, 2012)
